# Residue numbers refer to the chain shown, from its start.
# B1: corresponding monoclonal antibody having the same FAP binding site as FAP-multi-specific BP 4G8 (antibody, V domains shown)
# VH: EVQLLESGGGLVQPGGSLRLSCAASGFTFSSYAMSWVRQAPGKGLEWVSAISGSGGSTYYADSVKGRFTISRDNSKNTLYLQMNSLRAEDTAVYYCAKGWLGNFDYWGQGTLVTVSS
# VL: EIVLTQSPGTLSLSPGERATLSCRASQSVSRSYLAWYQQKPGQAPRLLIIGASTRATGIPDRFSGSGSGTDFTLTISRLEPEDFAVYYCQQGQVIPPTFGQGTKVEIK
# notes: also called FAP-mAb; anti-FAP mAb
# B2: corresponding monoclonal antibody having the same FAP binding site as FAP-multi-specific BP 29B11 (antibody, V domains shown)
# VH: EVQLLESGGGLVQPGGSLRLSCAASGFTFSSYAMSWVRQAPGKGLEWVSAIIGSGGITYYADSVKGRFTISRDNSKNTLYLQMNSLRAEDTAVYYCAKGWFGGFNYWGQGTLVTVSS
# VL: B1 VL with S30T, R31S, I50N, G51V, A52G, T54R, Q93I, V94M, I95L
# notes: as for B1
# B3: corresponding monoclonal antibody having the same FAP binding site as FAP-multi-specific BP Sibrotuzumab (antibody, V domains shown)
# VH: QVQLVQSGAEVKKPGASVKVSCKTSRYTFTEYTIHWVRQAPGQRLEWIGGINPNNGIPNYNQKFKGRVTITVDTSASTAYMELSSLRSEDTAVYYCARRRIAYGYDEGHAMDYWGQGTLVTVSS
# VL: DIVMTQSPDSLAVSLGERATINCKSSQSLLYSRNQKNYLAWYQQKPGQPPKLLIFWASTRESGVPDRFSGSGFGTDFTLTISSLQAEDVAVYYCQQYFSYPLTFGQGTKVEIK
# notes: as for B1
# Target: T1, fibroblast activation protein (FAP) expressed on human cell lines LL86, COLO 829 and U-87 MG (human, UniProt Q12884 1-760)
# T1 construct: the assays used endogenous FAP on human cell lines
# Assay: flow cytometry on LL86, COLO 829 and U-87 MG cells, anti-human IgG detection, MFI fold over background
# Procedure: Multi-specific binding proteins or corresponding monoclonal antibodies (mAb) having the same FAP binding site were diluted and incubated with the cells. Binding was detected using fluorophore-conjugated anti-human IgG secondary antibody. Cells were analyzed by flow cytometry and express as mean fluorescence intensity (MFI) normalized to human recombinant IgG1 stained controls to obtain fold over background (FOB) values.
row,binding result,Binder
1,binds,B1
2,binds,B2
3,binds,B3

# From patent US20210363261A1 (DRAGONFLY THERAPEUTICS, published 2021)
